The target of assay [1] is C1r complement protein (human).
Assay [2] concerns the target C1s complement protein (human).
Assay [3] addresses C3 complement protein (human).

Consider “complement evasion factor (CEF), recombinant Spy0136 (from UniProt Q9A1R6 28-221) (natural protein)”, for which the Wieslab complement assay, classical pathway activity (C5b-9 formation) of serum pre-incubated with 2 µM rCEF in assay [1] and in assay [2] was below 10 % activity in each case. Besides, the C3b deposition on S. pyogenes opsonised with human serum with 0.5 µM rCEF, flow cytometry in assay [3] came out at 30 % decrease.
